System: MS2 coat protein
Assay: apparent KD of MS2 coat protein; designed switch direction (-1 OFF switch, 1 ON switch): -1; higher = weaker reporter binding
Method in brief: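 Normalised cluster fluorescence was curve-fitted, and each design's median over clusters is its apparent KD. Before this, SNAP-549-labelled MS2 coat protein was titrated from 0.7 or 1.5 nM, doubling to 3 µM, over RNA switches transcribed on Illumina chips by stalled E. coli RNA polymerase. Titrations had no input, 200 uM small-molecule ligand, or an oligonucleotide input, and steps lasted 0.8–1.5 h (lowest) to 10–20 min (highest).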

[1] = Eterna round: R95, input ligand: FMN 200 uM
[2] = Eterna round: R95, input ligand: microRNA oligo, concentration not stated
[3] = Eterna round: R95, input ligand: none
[4] = input ligand: microRNA oligo, concentration not stated

| Sequence | apparent KD of MS2 coat protein (input ligand: FMN 200 uM) [nM] | apparent KD of MS2 coat protein (input ligand: none) [nM] | apparent KD of MS2 coat protein [1] [nM] | apparent KD of MS2 coat protein [2] [nM] | apparent KD of MS2 coat protein [3] [nM] | apparent KD of MS2 coat protein [4] [nM] |
| --- | --- | --- | --- | --- | --- | --- |
| CCUUUGUCAGGAUAUCGUGCAUACAACGAAAGUUCUAUGUGCGAGAAGGGACAUGAGGAUCACCCAUGUUACGG [Omei Ex4 A3] (Eterna round: R97, puzzle: Exclusion 4) | 172 | 368 |  |  |  |  |
| CUGGUCCGAGGAUAUAUGAUGUGAAACAUGAGGAUCACCCAUGUAAUAUUAUGGAAGUAAAUAGAAGGCGGACUAG [Mat - Exclusion 5 - JL mod - D34] (puzzle: Exclusion 5) |  |  | 28.6 | 49.5 | 37 |  |
| ACUUACUGAGGAUAUACAUAGAUUUACAUGAGGAUCACCCAUGUUCCUCUAUGUAUAAAUGUAGAAGGCAGAAGAU [Mat - Exclusion 5 - JL Mod - D55] (Eterna round: R97, puzzle: Exclusion 5) | 64.2 | 17.8 |  |  |  |  |
| UACAUGAGGAUCACCCAUGUUUUGUCGUGUAUGGUAUUUAUCUAGGAUAUCAUUUUAAUUAGUUAUGAGAAGGAGAAUAUUAAU [JMF's solution 87] (Eterna round: R96, puzzle: Exclusion NG 3) | 33.7 | 32.5 |  |  |  | 24.4 |
| UUUUUAUAUGAAGGAUAUACUUAACAUGAGGAUCACCCAUGUGGUGUUGUGAGUGAGUGAGUUUAGUAGAAGGUCAAUGAUUUA [JMF's solution 62] (Eterna round: R96, puzzle: Exclusion NG 2) | 1210 | 354 |  |  |  | 414 |
| CUCCUCAUGGCGCCUAAACACAUGAGGAUCACCCAUGUACAGGCUUUUUGCCGUCUUAUAAUAAAACCGAGGAGGCG [Atrelele] (puzzle: Sensor v3, turn-off variant 1) |  |  | 21 | 146 | 23.6 |  |
| UCCUCACAUGAGGAUCACCCAUGUUAGGAUAUUUAAUAGCGCGAAAGACAGUUCUGUAAGAGAAGGAACUGGGC [Edarti] (Eterna round: R97, puzzle: Exclusion 1) | 14.6 | 15 |  |  |  |  |
| UAAAAUCUAGGAUAUACAUGAGGAUCACCCAUGUUGCUCCCAGCUCGUGACCUCCAAUGUAGAAGGAGAACGAU [EX3 A.15] (Eterna round: R97, puzzle: Exclusion 3) | 19.8 | 20.1 |  |  |  |  |
| ACGGUGGUCCGAGAACAUGAGGAUCACCCAUGUGACAAAACCAAGGAUAUAGAAGGACCGCCCGACUAGAAGGUGGAAAGAAAA [Aresonen] (Eterna round: R96, puzzle: Exclusion NG 3) | 101 | 117 |  |  |  | 73.3 |
| GGGCCACAUGAGGAUCACCCAUGUGAGGAUAUCAUGCUUCGUAGUAAACUACGAAGUGUGAGAAGGCACAAUGG [Omei Ex1 C9] (Eterna round: R97, puzzle: Exclusion 1) | 444 | 143 |  |  |  |  |
| AUUCCAACUUGAGGAUAUUAGUGGAACAGCCACUGAGAAGGCAGAUAACACCCUCAUAAACAUGAGGAUCACCCAUGUAGGAGA [Eternabot solution 44] (Eterna round: R96, puzzle: Exclusion NG 1) | 132 | 86.3 |  |  |  | 78.1 |
| UAAAAGCUAGGAUAUACAUGAGGAUCACCCAUGUCACGGGUGCCACACCGAAAGGUGCGUAGAAGGAGCCCAAA [Orrecedi] (puzzle: Exclusion 3) |  |  |  | 38.4 |  |  |
| AGUAACAGAGGAUAUACUAUUUUAUGUGUUUGUUAUUUUGAACAUGAGGAUCACCCAUGUAGAAGGCUGAAUAA [JMF 93] (puzzle: Exclusion 2) |  |  |  | 24 |  |  |
| GGAAGAAUGAGUAGUCCUCAUUGAAGAGAAUAGUAAGAAACAUGAGGAUCACCCAUGUAAGAACAAGCUUUUGCUCA [JR_Sv3TOV2_Sub003] (puzzle: Sensor v3, turn-off variant 2) |  |  | 227 | 85 | 179 |  |
| ACAUGUGUUGUAGGAUAUAGGAGACAUGAGGAUCACCCAUGUUGAUUCAUGUCUAUGGAAACGUCCUAGAAGGACGACAACAUG [Ex NG2 #20] (Eterna round: R96, puzzle: Exclusion NG 2) | 237 | 201 |  |  |  | 111 |
| AGUGCGUAUGUGAGGAUAUGCUGGUCCUUGGAUCGGCAGAAGGCACAUGAGGAUCACCCAUGUGGUGUCGUACU [salish99_Bmod_ex4_084] (puzzle: Brourd's mod of Exclusion 4) |  |  |  | 280 |  |  |
| GCGGAGUCGAUCGUGAGAUCGGAGACAUGAGGAUCACCCAUGUAGGAUAUCGAUUGCUUUGCAGUCGAGAAGGGCGUGCUCCGC [JL denovo 18] (Eterna round: R96, puzzle: Exclusion NG 3) | 19.9 | 22.9 |  |  |  | 18.6 |

| Sequence | apparent KD of MS2 coat protein (input ligand: FMN 200 uM) [nM] | apparent KD of MS2 coat protein (input ligand: none) [nM] | apparent KD of MS2 coat protein [1] [nM] | apparent KD of MS2 coat protein [2] [nM] | apparent KD of MS2 coat protein [3] [nM] | apparent KD of MS2 coat protein [4] [nM] |
| --- | --- | --- | --- | --- | --- | --- |
| GAGAAAUGUGUUAGGAUAUCCCGCUAAAGCAGAUAGGAGAAGGAACAUGAGGAUCACCCAUGUAGGGAGGGCCA [Eternabot (Original) Solution 17] (Eterna round: R97, puzzle: Brourd's mod of Exclusion 4) | 192 | 67 |  |  |  |  |
| CCAGGCUGUGUGAGGAUAUGCUGGUCCUUGGAUCAGCAGAAGGCACAUGAGGAUCACCCAUGUGAAUAGCUUGG [JL bmx4 3.26] (puzzle: Brourd's mod of Exclusion 4) |  |  |  | 15.8 |  |  |
| GUGGAGUAAGGAUAUACAUGAGGAUCACCCAUGUAAGGGAAGGUGAUGGGAGUAGAUAGUAGAAGGUACGAGGA [JR_Exclu3_Sub067] (puzzle: Exclusion 3) |  |  | 58.3 | 97.2 | 100 |  |
| CUGAGCUGAGGAUAUACAUGAGGAUCACCCAUGUUUUGUAGCUAGUGAAGAAGUAGAUGUAGAAGGCAGUUCGG [Mod of JL 25 - Jieux - Exclusion 3] (Eterna round: R97, puzzle: Exclusion 3) | 167 | 72.8 |  |  |  |  |
| UGCAGACGAGGAUAUAAAUUUGAUAACAUGAGGAUCACCCAUGUGAUCGAUAGAUCAAAUUUAGAAGGCGUCUGCU [E5/7-A3] (Eterna round: R97, puzzle: Exclusion 5) | 541 | 519 |  |  |  |  |
| AAGAAACAUGAGGAUCACCCAUGUGAGGAUAUGAGCAAGAAAAGAAAAGAAAGAAGAUUCAGAAGGCACAAAGG [salish99-ex1_r3_059] (puzzle: Exclusion 1) |  |  | 61.6 | 39.4 | 59.3 |  |
| ACGCGUGGCUAGGAUAUGCAGCUAUCUGGCCAGGCAGAAGGAGCCACAUGAGGAUCACCCAUGUGGUGAUCCUC [eternacac ex6r4 sub3] (Eterna round: R97, puzzle: Exclusion 6) | 12.1 | 11.9 |  |  |  |  |
| AGAACUCUAGUAGGAUAUGUCGGAUAUGUUGUUGAGGUUCACCCAACGACGUCAAUGACAGAAGGACAGAAGGACUCCUGUUCA [pwkr exNG2 2xFMN 1xF5.8] (Eterna round: R96, puzzle: Exclusion NG 2) | 1020 | 711 |  |  |  | 3670 |
| GAGAGAAUCUAGGAUAUAUCAAGAGAAGGAGAGAUAGAAGGAGAGACAUGAGGAUCACCCAUGUCUUCGUGUAG [Default title] (Eterna round: R97, puzzle: Exclusion 6) | 16.6 | 15.8 |  |  |  |  |
| UUUUUAUAUGAAGGAUAUACUUAACAUGAGGAUCACCCAUGUGGUGUUGUGAGUGAGUGAGUUUAGUAGAAGGUCAAGUAUUUG [JMF's solution 42] (Eterna round: R96, puzzle: Exclusion NG 2) | 689 | 342 |  |  |  | 204 |
| AGAUAACAUGAGGAUCACCCAUGUGAGGAUAUUUACCCAAGAGCUUCGGCUCUCAGGUGAAGAAGGCACAUUGA [EX1 #58] (Eterna round: R97, puzzle: Exclusion 1) | 316 | 86.4 |  |  |  |  |
| GUCAGCUCGUCAGGAUAUACAUGAUAGAUCGAUUAAUUAAUUAAUUUAACAUGAGGAUCACCCAUGUAGAAGGGACGAGCUGAU [ENG2/1-B2] (Eterna round: R96, puzzle: Exclusion NG 2) |  |  |  |  |  | 59.2 |
| AUAAUGUAAGGAUAUAUGAAUCACGGUGAUACACCGUGAAGAUAGAAGGUACAUGAGGAUCACCCAUGUAAGGC [Mod of Anonveat 12 - Jieux - Exclusion 4] (Eterna round: R97, puzzle: Exclusion 4) | 12.1 | 21 |  |  |  |  |
| UUAAAUCAUGUAGGAUAUGCGUGGCGAAGCUAUGCAGAAGGACAUGAGGAUCACCCAUGUGCUAGCGUCCGCGUACGGAUGCAA [JL ENG1 1.21] (Eterna round: R96, puzzle: Exclusion NG 1) | 131 | 62 |  |  |  | 57.1 |
| AAUGAUUGACGAGGAUAUUGUGGUGAAACACGACGAGAAGGCGUAUGUCACAUGAGGAUCACCCAUGUGAGCUUUGUGGAUAUA [Ex NG1 #68] (Eterna round: R96, puzzle: Exclusion NG 1) | 34.7 | 34.1 |  |  |  | 24.1 |
| CUCCGCGGAGGAUAUGCAGCCUUCGACAUGAGGAUCACCCAUGUACAAGAUCCCUUGUCGGCAGAAGGCCGGGAGA [Usena] (Eterna round: R97, puzzle: Exclusion 5) | 114 | 448 |  |  |  |  |
| AGCAGACGAGGAUAUAGAUUUAGAUACAUGAGGAUCACCCAUGUAUACAUGUAUUUAGAUUUAGAAGGCGUCUGCU [E5/14-A1] (Eterna round: R97, puzzle: Exclusion 5) | 1250 | 1340 |  |  |  |  |

Source: the supplement of paper PMC9170038
